{
  "source": "paper PMC11234460",
  "about": "“In Silico Discovery of Stapled Peptide Inhibitor Targeting the Nur77‐PPARγ Interaction and Its Anti‐Breast‐Cancer Efficacy” (Advanced Science, 2024)",
  "binders": {"B1": {"name": "S-CY14 (stapled CY14) (peptide)", "chain": "CEGCKGF[S5]RRT[S5]RY-NH2", "modifications": "staple 8-12; cysteine pairing not given here"}, "B2": {"name": "ST-CY14 (stapled T-CY14) (peptide)", "chain": "H-CEGCKGF[S5]RRT[S5]RYYGRKKRRQRRR-NH2", "modifications": "staple 8-12; cysteine pairing not given here"}, "B3": {"name": "SV16, α-helix of PPARγ (residues Ser186-Val201) (peptide, UniProt P37231 186-201, looked up)", "peptide": "SRNKCQYCRFQKCLAV-NH2", "modifications": "cysteine pairing not given here", "notes": "PPARγ, residues Ser186-Val201 of the DBD; Made on Rink amide resin, so probably a C-terminal amide; source: synthetic peptide (Fmoc SPPS on Rink Amide MBHA resin)"}, "B4": {"name": "T-CY14 (CY14 with the TAT sequence conjugated to its C-terminus) (peptide)", "chain": "CEGCKGFFRRTIRYRKKRRQRRR-NH2", "modifications": "cysteine pairing not given here"}, "B5": {"name": "CY14 (CL14 with Leu169 mutated to Tyr) (peptide, UniProt P37231 156-169, looked up)", "peptide": "CEGCKGFFRRTIRY-NH2", "modifications": "cysteine pairing not given here", "notes": "PPARγ, residues Cys156-Leu169, with Leu169 mutated to Tyr; source: synthetic peptide (Fmoc SPPS on Rink Amide MBHA resin)"}, "B6": {"name": "CH14 (CL14 with Leu169 mutated to His) (peptide, UniProt P37231 156-169, looked up)", "peptide": "CEGCKGFFRRTIRH", "notes": "PPARγ, residues Cys156-Leu169, with Leu169 mutated to His; source: synthetic peptide (Fmoc SPPS on Rink Amide MBHA resin)"}, "B7": {"name": "CF14 (CL14 with Leu169 mutated to Phe) (peptide, UniProt P37231 156-169, looked up)", "peptide": "CEGCKGFFRRTIRF", "notes": "PPARγ, residues Cys156-Leu169, with Leu169 mutated to Phe; source: synthetic peptide (Fmoc SPPS on Rink Amide MBHA resin)"}, "B8": {"name": "CW14 (CL14 with Leu169 mutated to Trp) (peptide, UniProt P37231 156-169, looked up)", "peptide": "CEGCKGFFRRTIRW", "notes": "PPARγ, residues Cys156-Leu169, with Leu169 mutated to Trp; source: synthetic peptide (Fmoc SPPS on Rink Amide MBHA resin)"}, "B9": {"name": "CL14, α-helix of PPARγ (residues Cys156-Leu169) (peptide, UniProt P37231 156-169, looked up)", "peptide": "CEGCKGFFRRTIRL-NH2", "modifications": "cysteine pairing not given here", "notes": "PPARγ, residues Cys156-Leu169 of the DBD; Made on Rink amide resin, so probably a C-terminal amide; source: synthetic peptide (Fmoc SPPS on Rink Amide MBHA resin)"}},
  "key": {"[1]": {"target": "T1, LBD fragment of human Nur77 (residues 351–598) (human, UniProt P22736 351-598)", "T1 construct": "Labelled with a fluorescent dye for MST; amine-coupled to the chip for SPR; also called Nur77 LBD; Nur77-LBD; source: E. coli BL21(DE3), purified (Ni-NTA, Superdex 200 gel filtration)", "T1 sequence (P22736 351-598)": "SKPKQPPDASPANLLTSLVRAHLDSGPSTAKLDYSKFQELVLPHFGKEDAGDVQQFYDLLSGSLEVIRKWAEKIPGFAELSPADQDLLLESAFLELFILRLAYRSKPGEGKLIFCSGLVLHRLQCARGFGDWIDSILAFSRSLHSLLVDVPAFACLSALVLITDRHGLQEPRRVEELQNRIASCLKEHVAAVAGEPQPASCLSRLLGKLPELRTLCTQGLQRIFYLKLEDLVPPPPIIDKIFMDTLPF", "assay": "MST; purified Nur77 LBD labelled with fluorescent dye; peptides 0.1-100 × 10^-6 M; PBST (0.05% Tween-20); 20 min at room temperature; Dianthus (NanoTemper)", "conditions": "both partners purified"}, "[2]": {"target": "T1, LBD fragment of human Nur77 (residues …)", "assay": "MST", "conditions": "both partners purified"}, "[3]": {"target": "T2, SmallBit-Nur77 (luciferase SmallBit fusion of Nur77) (UniProt P22736 1-598)", "T2 construct": "Nur77; source: HEK293T, transiently transfected, in living cells", "T2 sequence (P22736 whole entry, the tested form may be a part)": "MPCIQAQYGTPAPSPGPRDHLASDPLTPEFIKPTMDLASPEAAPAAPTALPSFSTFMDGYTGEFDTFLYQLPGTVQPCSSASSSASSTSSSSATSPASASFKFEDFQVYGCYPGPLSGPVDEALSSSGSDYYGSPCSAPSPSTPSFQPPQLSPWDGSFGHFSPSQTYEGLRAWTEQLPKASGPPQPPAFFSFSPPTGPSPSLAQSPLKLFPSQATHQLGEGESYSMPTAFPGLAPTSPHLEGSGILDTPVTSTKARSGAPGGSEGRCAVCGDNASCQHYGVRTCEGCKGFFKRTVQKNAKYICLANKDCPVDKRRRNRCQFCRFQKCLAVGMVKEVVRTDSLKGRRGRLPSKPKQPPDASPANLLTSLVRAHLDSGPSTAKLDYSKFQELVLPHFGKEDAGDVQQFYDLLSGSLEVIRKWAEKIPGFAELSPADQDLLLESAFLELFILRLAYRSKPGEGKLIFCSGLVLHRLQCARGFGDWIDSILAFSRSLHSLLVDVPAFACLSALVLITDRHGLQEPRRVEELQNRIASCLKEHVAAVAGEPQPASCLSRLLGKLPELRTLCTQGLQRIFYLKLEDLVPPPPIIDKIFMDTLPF", "assay": "split reporter (BiFC, NanoBiT)", "conditions": "one partner purified"}, "[4]": {"target": "T1, LBD fragment of human Nur77 (residues …)", "assay": "SPR", "conditions": "both partners purified"}},
  "note": "Bridges are numbered along the chain shown (N, C = ends). Where no end group is shown, it is not given here. [ ]: non-standard residue; d: D form. S5 = C=CCCC[C@](C)(N)C(=O)O",
  "data": [
    {"binder": "B1", "values": [
      {"measurement": "Kd", "setting": "[1]", "value": 3.96, "unit": "µM"}
    ]},
    {"binder": "B2", "values": [
      {"measurement": "Kd", "setting": "[2]", "value": 0.668, "unit": "µM"},
      {"measurement": "EC50", "setting": "[3]", "value": 3.15, "unit": "µM"},
      {"measurement": "Kd", "setting": "[4]", "value": 0.0325, "unit": "µM"}
    ]},
    {"binder": "B3", "values": [
      {"measurement": "Kd", "setting": "[1]", "value": 156, "unit": "µM"}
    ]},
    {"binder": "B4", "values": [
      {"measurement": "Kd", "setting": "[2]", "value": 4.18, "unit": "µM"}
    ]},
    {"binder": "B5", "values": [
      {"measurement": "Kd", "setting": "[1]", "value": 8.7, "unit": "µM"}
    ]},
    {"binder": "B6", "values": [
      {"measurement": "binding result", "setting": "[1]", "value": "binds"}
    ]},
    {"binder": "B7", "values": [
      {"measurement": "binding result", "setting": "[1]", "value": "binds"}
    ]},
    {"binder": "B8", "values": [
      {"measurement": "binding result", "setting": "[1]", "value": "binds"}
    ]},
    {"binder": "B9", "values": [
      {"measurement": "Kd", "setting": "[1]", "value": 27.2, "unit": "µM"}
    ]}
  ]
}
